According to patent US9150630B2, “Use of Idbf” (Industry-Academic Cooperation Foundation, Yonsei University, priority 2008, dated 2015):
Primed or numbered codes have the meaning given here. Ends that are not written are not given here. FITC′ = not defined here

T1: Dvl-1 (Mus musculus, UniProt P51141)
T1 construct: endogenous in cells; host or cells: MC3T3E1 osteoblasts
T1 sequence (P51141 1-695): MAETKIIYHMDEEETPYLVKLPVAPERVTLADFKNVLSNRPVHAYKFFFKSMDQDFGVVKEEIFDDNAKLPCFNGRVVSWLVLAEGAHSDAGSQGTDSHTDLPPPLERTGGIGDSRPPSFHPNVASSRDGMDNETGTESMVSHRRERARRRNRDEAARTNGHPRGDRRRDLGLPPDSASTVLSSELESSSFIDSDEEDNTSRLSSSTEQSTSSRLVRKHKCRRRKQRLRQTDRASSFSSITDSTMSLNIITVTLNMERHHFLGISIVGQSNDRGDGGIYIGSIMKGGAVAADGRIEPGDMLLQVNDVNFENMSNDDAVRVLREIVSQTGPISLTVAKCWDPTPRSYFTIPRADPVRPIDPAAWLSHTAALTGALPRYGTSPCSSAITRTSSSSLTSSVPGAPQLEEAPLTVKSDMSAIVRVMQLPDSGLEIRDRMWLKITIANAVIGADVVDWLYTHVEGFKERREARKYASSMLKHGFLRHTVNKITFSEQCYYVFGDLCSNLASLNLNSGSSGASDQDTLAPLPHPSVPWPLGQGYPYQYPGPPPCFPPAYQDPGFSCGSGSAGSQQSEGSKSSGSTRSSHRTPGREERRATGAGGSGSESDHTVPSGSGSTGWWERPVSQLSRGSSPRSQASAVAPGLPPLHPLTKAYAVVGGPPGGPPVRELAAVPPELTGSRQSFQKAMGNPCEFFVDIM


How the values were obtained:
Wnt/β-catenin pathway [1] = assay: pTOPFLASH/pFOPFLASH luciferase reporter assay in MC3T3E1 cells; assay type: cell-based; settings: 5 μM PTD-DBMP or 100 ng/ml Wnt3a, 12 hours, FIG. 24
Protocol: To investigate the effect of PTD-DBMP treatment on Wnt/β-catenin pathway of MC3T3E1 cells, 0.5 μg of pTOPFLASH or pFOPFLASH with 50 ng of pCMV-β-Gal was transfected into the cells. After 12 hours, the transfected cells were treated with 100 ng/ml Wnt3a, or 5 μM PTD-DBMP, and then incubated for 12 hours. Then the cells were washed with PBS, and then lysed in Lysis Buffer (Promega). The cell lysates were mixed with Luciferase Substrate (Promega) to monitor the luciferase activities.

[2] = system: MC3T3E1 cells (osteoblast differentiation); assay: RT-PCR of osteoblast differentiation markers in MC3T3E1 cells; assay type: cell-based; settings: 10 μM PTD-DBMP or 100 ng/ml Wnt3a, 2 and 4 days, FIG. 25
Protocol: To study the effect of PTD-DBMP on osteoblast differentiation, 100 ng/ml Wnt3a, or 10 μM PTD-DBMP was treated on MC3T3E1 cells. The cells were harvested after 2, and 4 days later, and then subjected into RT-PCR to monitor the amounts of ALP, Fgf18, RANKL, and HPRT mRNAs. The mRNA amounts of osteoblast differentiation markers (ALP, Fgf18, RANKL) were increased by PTD-DBMP treatment, as well as by Wnt3a treatment (FIG. 25).

[3] = system: Wnt/β-catenin pathway in MC3T3E1 cells; assay: Immunocytochemistry of PTD-DBMP treated MC3T3E1 cells; assay type: cell-based; settings: 5 μM or 10 μM, 12 hours, FIG. 23
Protocol: PTD-DBMP (SEQ ID NO: 26) was treated into MC3T3E1 cells, and then the introduction and effect of PTD-DBMP were monitored by immunocytochemistry analyses. MC3T3E1 cells were incubated on gelatin-coated glasses for 1 day, and then 5 μM or 10 μM PTD-DBMP were treated on the incubated cells for 12 hours. The PTD-DBMP-treated cells were washed with PBS, and then fixed using a fixative solution (99% methanol and 1% formaldehyde). The fixed cells were permeabilized with 0.2% saponin solution, and then incubated with anti-β-catenin antibody (home-made; 1:100). The cells were incubated with Alexafluor 488 conjugated secondary antibody, and then the nucleus of cells were counterstained with DAPI.

Wnt/β-catenin signaling = assay: β-catenin immunoblotting of PTD-DBMP treated HEK293 cells; assay type: cell-based, human; settings: 1 μM or 4 μM PTD-DBMP, 12 hours, FIG. 22
Protocol: To investigate the effect of PTD-DBMP in the cells, HEK293 cells were incubated with 1 μM or 4 μM PTD-DBMP for 12 hours, and then the cell lysates were subjected into immunoblotting using anti-β-catenin, and anti-α-tubulin antibodies.

HEK293 cells = assay: Introduction of FITC-labelled PTD-DBMP into HEK293 cells (fluorescence microscopy); assay type: cell-based, human; settings: 1 μM or 4 μM peptide, 3 hours, FIG. 21
Protocol: To confirm the introduction of two PTD-DBMP into cells, HEK293 cells were seeded and incubated on gelatin-coated glasses for one day, and then 1 μM or 4 μM peptide were treated on the cells. After 3 hours, the cells were washed with PBS, and then fixed using fixative solution (99% methanol and 1% formaldehyde). Nucleus of cells were counterstained using DAPI, and the cells were observed using ECLIPSE TE2000-U microscope.

[4] = system: Wnt/β-catenin pathway and osteoblast differentiation in MC3T3E1 cells; assay: Idbf overexpression and Wnt3a treatment in MC3T3E1 cells, RT-PCR; assay type: cell-based; settings: FIG. 17C; for ALP and Fgf18 mRNA: 100 ng/ml Wnt3a 12 hours, or ascorbic acid and β-glycerol-phosphate 2 days
Protocol: Idbf was overexpressed in MC3T3E1 cells to investigate the function of Idbf in Wnt/β-catenin pathway and osteoblast differentiation. MC3T3E1 cells were transfected with pcDNA3.1 or pcDNA3.1-Idbf-Myc, and then transfected cells were incubated in α-MEM media containing 100 ng/ml Wnt3a for 12 hours or in α-MEM containing 50 mg/l ascorbic acid and 10 mM […] for 2 days. Wnt3a treatment results in mRNA increments of ALP and Fgf18, which were more significant than ascorbic acid and β-glycerol-phosphate treatment (FIG. 17C). […] However, the common target genes of Wnt/β-catenin pathway, cyclin D and c-myc were not regulated by Wnt3a or ascorbic acid and β-glycerol-phosphate treatment (FIG. 17C).

Wnt/β-catenin pathway [5] = assay: Wnt3a treatment and Idbf overexpression in HEK293 cells (reporter assay, Idbf-Dvl-1 binding); assay type: cell-based, human; settings: for effect on Wnt/β-catenin pathway in HEK293 cells: 100 ng/ml Wnt3a 12 hours or 0.5 μg plasmid, FIG. 19
Protocol: Function of Idbf in Wnt/β-catenin pathway was also studied in HEK293 cells, which is a established human embryonic kidney cell-line. HEK293 cells were transfected with 0.5 μg pcDNA3.1 or pcDNA3.1-Idbf-Myc. For reporter assay, 0.5 μg pTOPFLASH or pFOPFLASH with 50 ng pCMV-β-Gal was co-transfected. The transfeced cells were incubated in α-MEM with or without 100 ng/ml Wnt3a for 12 hours. […] The enhancement of Idbf-Dvl-1 binding by Wnt3a treatment was also not observed (FIG. 20).

β-catenin = assay: Idbf overexpression or knock-down in HEK293 cells: β-catenin immunoblot and TOPFLASH reporter; assay type: cell-based, human; settings: FIG. 5; for transcriptional activity of β-catenin: pTOPFLASH/pFOPFLASH luciferase; for protein level of β-catenin: transfection, immunoblotting
Protocol: 0.9 kb PCR product was restricted with XbaI and BamHI, and subcloned into a pcDNA3.1/myc His(−) vector (Invitrogen) (pcDNA3.1-Idbf-Myc). Idbf overexpression was performed by transfection of pcDNA3.1-Idbf-Myc into HEK293 cells using Lipofectamine plus reagent (Invitrogen) as the manufacturers' instruments.
Idbf knock-down was performed by transfection of Idbf siRNA into HEK293 cells using Lipofectamine plus reagent (Invitrogen) as the manufacturers' instruments. Idbf siRNA was synthesized using Silence™ siRNA Construction Kit (Ambion). To elevate the efficiency of knock-down, the mixture of two kinds of siRNAs, which are targeting different site of Idbf mRNA, were used.
For immunoblotting, cells were harvested, and lysed in RIPA buffer (50 mM Tris pH 7.5, 150 mM NaCl, 1 mM EDTA, and 1% Triton X-100). All chemicals were purchased from Sigma-Aldrich.
To detect proteins, whole cell lysates or immunoprecipitants were subjected into immunoblotting using anti-β-catenin, anti-Myc, or anti-α-tubulin antibodies. To monitor the transcriptional activity of β-catenin, 0.5 μg of pTOPFLASH or pFOPFLASH (kind gill from Dr. B. Vogelstein and Dr. K. Kinzler in Johns Hopkins Oncology Center, Baltimore, Md.) with 50 ng of pCMV-β-Gal was transfected into HEK293 cells. The luciferease activities, which indicate the transcriptional activity of β-catenin, were normalized by β-galactosidase activities, which show the efficiency of transfection. […] Oppositely, the protein level of β-catenin and its transcriptional activity were increased by Idbf knock-down (FIG. 5B). Error bars in FIG. 5 indicates standard deviation. WCL and IP are abbreviations of whole cell lysate and immunoprecipitation, respectively.

Dvl-1 = biological target: T1, Dvl-1; assay: Idbf-Dvl-1 binding by immunoprecipitation with anti-Idbf antibody; settings: with or without Wnt3a, FIG. 18B (MC3T3E1 osteoblast)
Description: To investigate the importance of Idbf-Dvl-1 binding in Idbf function, a mutant of Idbf, in which Dvl binding minimal peptide (DBMP; RKTGHQICKFRKC, SEQ ID NO: 4) was removed, was produced (pcDNA3.1-Idbf-ΔDBMP-Myc).
To monitor Idbf-Dvl-1 binding, cell lysates were subjected into immunoprecipitation using anti-Idbf antibody. Whole cell lysates were subjected into immunoblotting to detect the amounts of proteins, including β-catenin, α-tubulin, and Dvl-1.

Row | binding to Dvl-1 (Dvl-1) | Molecule | activation of Wnt/β-catenin pathway (luciferase activity normalized by β-galactosidase) (Wnt/β-catenin pathway [1]) | mRNA amounts of osteoblast differentiation markers (ALP, Fgf18, RANKL) [2] | activation of Wnt/β-catenin pathway (β-catenin in nucleus) [3] | introduction of peptide into cells (green fluorescence by FITC on nucleus and cytosol) [3] | amount of β-catenin (Wnt/β-catenin signaling) | introduction of peptide into cells (green fluorescence in nucleus and cytosol) (HEK293 cells) | cyclin D and c-myc (common target genes of Wnt/β-catenin pathway) ([4]; 100 ng/ml Wnt3a 12 hours) | ALP and Fgf18 mRNA [4] | effect on Wnt/β-catenin pathway in HEK293 cells (Wnt/β-catenin pathway [5]) | enhancement of Idbf-Dvl-1 binding (Wnt/β-catenin pathway [5]; Wnt3a treatment, FIG. 20) | transcriptional activity of β-catenin (β-catenin) | protein level of β-catenin (β-catenin)
1 | – | PTD-DBMP: PTD and glycine linker on the amino terminus of DBMP, FITC on the carboxyl terminus; two peptides in section 7, SEQ ID NO: 26 in section 8 (RRRRRRRRGGGGRKTGHQICKFRKCK-{FITC′}; cysteine pairing not given here) | as significant as the activation by Wnt3a treatment | increased | accumulation of β-catenin (red) in nucleus of the cells | successfully introduced into the cells | increased | successfully introduced into the cells | – | – | – | – | – | –
2 | – | Wnt3a: Wnt ligand used at 100 ng/ml to activate the Wnt/β-catenin signaling pathway (protein, UniProt P56704 19-352, looked up) Protein Wnt-3a: SYPIWWSLAVGPQYSSLGSQPILCASIPGLVPKQLRFCRNYVEIMPSVAEGIKIGIQECQHQFRGRRWNCTTVHDSLAIFGPVLDKATRESAFVHAIASAGVAFAVTRSCAEGTAAICGCSSRHQGSPGKGWKWGGCSEDIEFGGMVSREFADARENRPDARSAMNRHNNEAGRQAIASHMHLKCKCHGLSGSCEVKTCWWSQPDFRAIGDFLKDKYDSASEMVVEKHRESRGWVETLRPRYTYFKVPTERDLVYYEASPNFCEPNPETGSFGTRDRTCNVSSHGIDGCDLLCCGRGHNARAERRREKCRCVFHWCCYVSCQECTRVYDVHTCK | activation | increased | – | – | – | – | not regulated | increments | very marginal | not observed | – | –
3 | binds to Dvl-1 in Wnt3a-dependent manner | Idbf: novel Dvl-binding protein (SEQ ID NO: 1), overexpressed by transfection of pcDNA3.1-Idbf-Myc (protein, listed as Homo sapiens, Myc tag) MSSLGGGSQDAGGSSSSSTNGSGGSGSSGPKAGAADKSAVVAAAAPASVADDTPPPERRNKSGIISEPLNKSLRRSRPLSHYSSFGSSGGSGGGSMMGGESADKATAAAAAASLLANGHDLAAAMAVDKSNPTSKHKSGAVASLLSKAERATELAAEGQLTLQQFAQSTEMLKRVVQEHLPLMSEAGAGLPDMEAVAGAEALNGQSDFPYLGAFPINPGLFIMTPAGVFLAESALHMAGLAEYPMQGELASAISSGKKKRKRCGMCAPCRRRINCEQCSSCRNRKTGHQICKFRKCEELKKKPSAALEKVMLPTGAAFRWFQ | – | – | – | – | – | – | – | suppressed increment | very marginal | – | reduced | reduced
4 | – | Idbf siRNA: mixture of two siRNAs targeting different sites of Idbf mRNA (SEQ ID NO: 12-15) (nucleic acid, listed as RNA, chemistry not given here) chain 1: UUGUAGGAAUCGAAAGACUUU chain 2: AGUCUUUCGAUUCCUACAAUU chain 3: GCAGUUUGCGCAGUCCACAUU chain 4: UGUGGACUGCGCAAACUGCUU | – | – | – | – | – | – | – | – | – | – | increased | increased
